This is an account of results in the supplement of paper PMC10567573.

A short description of this data set: protein stability index of a GFP-peptide fusion (GPS, HEK-293T) (PSI 1-6); higher = more stable.
Setting [1] is: treatment: DMSO, c terminus: a fixed tail appended.
Where [2] appears, read: treatment: MLN4924 1 uM, 8 h, c terminus: a fixed tail appended.
Setting [3] is: treatment: DMSO, c terminus: native.
Where [4] appears, read: treatment: MLN4924 1 uM, 8 h, c terminus: native.

± gives the standard deviation.
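Also: 24-mer peptide tiles fused after GFP, lentivirally expressed, FACS-sorted into six equal bins by GFP/DsRed ratio, decoded by Illumina sequencing, PSI is the read-weighted mean bin number.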

SWVVRVQAAKLLGSMEQVSSHFLE [INTS4]: the protein stability index is 2.47 ± 0.45 under setting [1] and 2.53 ± 0.43 under setting [2].

Take HFSQSLTVIHDFLFSLKESPEKFQ [FAF2]: the protein stability index came to 2.06 ± 0.23 under setting [1] and 2.44 ± 0.26 under setting [2]. The corresponding values for EPNTLRAPRVRTAFTMEQVRTLEG [VENTX] are 3.98 ± 0.39 and 3.85 ± 0.21. As to SIQVRRKPQHGVCSQLLGNYRCL [SERPINB9P1], the protein stability index is 2.69 ± 0.51 under setting [3] and 3.09 ± 0.18 under setting [4]. VGKSLTILGRTFFIYDCDPFTRRY [EFHC1]: the protein stability index by setting is: under setting [1], 2.47 ± 0.54; under setting [2], 2.7 ± 0.54. The corresponding values for CITEDGRTVAVGDIVWGKIHGFPW [PWWP2B] are 2.49 ± 0.5 and 2.28 ± 0.45. The corresponding values for MGLVETKLAIIPGGGGTQRLPRAI [AUH] are 2.99 ± 0.82 and 3.34 ± 0.35. The corresponding values for ISSIEAQLSELRSEMECQNQEYKM [KRT13] are 4.76 ± 0.23 and 4.69 ± 0.29. Take LVVHTGCKDFLCQFCAQRFGRKDH [PLAGL1]: the protein stability index under setting [1] worked out at 2.6 ± 0.34 and the protein stability index under setting [2] worked out at 2.98 ± 0.091. The corresponding values for PLTFDKNENMAAKKKSVAMHTNYL [GNB5] are 3.33 ± 0.26 and 3.46 ± 0.26. For RRGIALIFNHERFFWHLTLPERRG [CASP6], the protein stability index by setting is: under setting [1], 2.75 ± 1.6; under setting [2], 2.04 ± 0.68.

Regarding FHLSLFQGWMNLLNMAKKSVDIVS [PLD5], the protein stability index reads like this: under setting [1], 2.99 ± 1.5; under setting [2], 1.73 ± 0.94. The corresponding values for TSNSDDNMLKNIELFDKLSLRFNG [KCTD10] are 3.07 ± 0.3 and 3.18 ± 0.39. The corresponding values for QGSRGLTDQAIFYAVTPLPWCPHL [HDAC6] are 2.64 ± 0.66 and 2.41 ± 0.46.

Take SINVLLMMHGLKPLSLVKRTDLKD [CEP70]: the protein stability index runs as follows: under setting [1], 2.6 ± 0.6; under setting [2], 2.59 ± 0.78. The corresponding values for KGNPEEEDVDTSQVLYEWEQGFSQ [CTNNB1] are 5.11 ± 0.25 and 5.25 ± 0.28. The corresponding values for PASFPTWGCDLGVVTRVVTGVYPR [BRF1] are 2.37 ± 0.16 and 2.39 ± 0.3. With DQLTQIMRTGQNTWESKNILAVSF [PCMTD1], the protein stability index was determined as 2.21 ± 0.22 under setting [1] and 1.92 ± 0.36 under setting [2]. Regarding RHLDFHVKDLIKKLLVVDRTRRLG [PRKX], the protein stability index is 2.57 ± 0.042 under setting [1] and 2.41 ± 0.36 under setting [2]. The corresponding values for QVKFGQQNPRQVAQSEAEKKLKKD [ZC3H15] are 5.37 ± 0.25 and 5.37 ± 0.076. The corresponding values for VSARSREGRGGRPGSTRPHRSACS [HAGHL] are 4.64 ± 0.2 and 4.69 ± 0.44. The corresponding values for VNKLKWNLAAMTPHDFIEHFLSKM [CCND1] are 2.25 ± 0.35 and 2.51 ± 0.25. Turning to TVEERQTGMWWRHLVAGGGAGAVS [SLC25A25], the protein stability index under setting [1] worked out at 2.98 ± 0.39 and the protein stability index under setting [2] is 2.96 ± 0.43. The corresponding values for KDGEYCWRWTGFNFGFDLLVTYTN [GMCL1] are 3.44 ± 0.41 and 2.89 ± 0.46.

As for GAYQPTVVSSEGRQSRRQSVSRFF [FBF1], the protein stability index is 4.01 ± 0.37 under setting [1] and 4.1 ± 0.32 under setting [2]. The corresponding values for MVGQKDSVILSVKFSPFGQWWASV [TLE6] are 2.95 ± 0.35 and 2.89 ± 0.35. In the case of FVLYFLLACWTYGISVPSGLFVPS [CLCN6], the protein stability index is, setting by setting: under setting [1], 3.49 ± 0.56; under setting [2], 3.09 ± 0.14. The corresponding values for KDWLEGTVRGATGIFPLSFVKILK [NCF4] are 2.49 ± 0.5 and 2.38 ± 0.52. The corresponding values for LEDVERELDGPKQIFFGRRKDMIA [ZNF396] are 3.98 ± 0.3 and 4 ± 0.15.

Regarding PDRVYIHPDSPATGAHWMRQPVSF [TBX6], the protein stability index by setting is: under setting [1], 2.45 ± 0.22; under setting [2], 2.54 ± 0.098. The corresponding values for TELSFLVTTHQPTNLVLPSNGSMH [EDNRA] are 2.67 ± 0.33 and 2.44 ± 0.42.

Take HNISHMSMDIARGLMVTCGTDRIV [WDFY1]: the protein stability index under setting [1] turned out to be 2.26 ± 0.16 and the protein stability index under setting [2] was 2.27 ± 0.15. The corresponding values for SSRQEKRPLCAQGDWHSPTLIREK [ELOA2] are 4.05 ± 0.24 and 4.23 ± 0.25.

Regarding MASTTTCTRFTDEYQLFEELGKGA [CAMK2D], the protein stability index reads like this: under setting [1], 3.74 ± 0.38; under setting [2], 3.64 ± 0.29. The corresponding values for RLHLAFKRQVPTEQARAYAEKNCM [RAB40C] are 2.98 ± 0.15 and 3.1 ± 0.26. The corresponding values for RSSALWSEMLDITMKESLTTREIR [NET1] are 3.13 ± 0.23 and 3.23 ± 0.23. With HIFPASRWEPYDPEKKWDKYTIR [FAM50A], the protein stability index reads like this: under setting [3], 2.82 ± 0.45; under setting [4], 3.15 ± 0.51. Take LEQPFLSVFKKGRRRVPVRNLGKV [PLEKHN1]: the protein stability index amounted to 3.19 ± 0.31 under setting [1] and 3.56 ± 0.58 under setting [2].

For the sequence MNSLLIGELSPEQPSFEPTKNKEL [FADS1], the protein stability index by setting is: under setting [1], 4.26 ± 0.091; under setting [2], 4.8 ± 0.21. The corresponding values for YGYAAQARARERERLAHSRAAAAA [KCNA4] are 3.9 ± 0.26 and 4.02 ± 0.097. The corresponding values for EQLERINDALSCEYECRRRMLMKR [FAM98B] are 3.09 ± 0.37 and 3.14 ± 0.33. With MLEMVPEKRASAGECLRHPWLNS [SRPK2], the protein stability index reads like this: under setting [3], 3.79 ± 0.34; under setting [4], 3.85 ± 0.25. Regarding FLGETKQETLTNISAVNYDFDEEY [DAPK3], the protein stability index under setting [1] amounted to 4.77 ± 0.35 and the protein stability index under setting [2] amounted to 4.84 ± 0.24. The corresponding values for NHIGMGVRYNAEKKKVGNYYTTPI [YJU2B] are 3.03 ± 0.22 and 3.27 ± 0.18. Take FVNDLTVTQDGRKIYFTDSSSKWQ [APMAP]: the protein stability index stood at 2.8 ± 0.46 under setting [1] and 2.92 ± 0.24 under setting [2]. The corresponding values for ERHLVEIKQKLGMNLMNELKQNFS [TPD52L1] are 3.04 ± 0.2 and 2.71 ± 0.41. Regarding VEVLVDLFLKEGACDELFSYLIEK [PRAME], the protein stability index was found to be 2.55 ± 0.66 under setting [1] and 3.03 ± 0.58 under setting [2]. The corresponding values for RPRTRKVKSVSPQGNSVDRMAAPR [NCF4] are 4.85 ± 0.15 and 4.795 ± 0.046. The corresponding values for REEERPLPRRDFQRQVWLLFEYPE [KCNA3] are 2.64 ± 0.43 and 2.67 ± 0.37. The corresponding values for LSLCCWGWVSGQLRYSVVEESEPG [PCDHGC5] are 2.65 ± 0.48 and 2.25 ± 0.5.

For the sequence SEDRTVRVWLKRDSGQYWPSVYHA [WDFY2], the protein stability index was found to be 2.27 ± 0.12 under setting [1] and 2.37 ± 0.21 under setting [2].

Take DARQLFVLAGAAEEGFMTAELAGV [GNAI1]: the protein stability index reads like this: under setting [1], 2.75 ± 0.37; under setting [2], 2.92 ± 0.31.

As to DTNSIAKAIKARGEVIHCKLRAMK [STX11], the protein stability index is 2.82 ± 0.29 under setting [1] and 2.89 ± 0.23 under setting [2].

Take QKILCAKAENARLVVNIDNAKLAS [KRT34]: the protein stability index turned out to be 3.49 ± 0.2 under setting [1] and 3.56 ± 0.11 under setting [2].

Turning to VSERSFDNVRSLKVESGAWIGYEH [CRYBA1], the protein stability index runs as follows: under setting [1], 2.91 ± 0.47; under setting [2], 3.02 ± 0.33.

For MNVMLKSSPVDLVTATDQKVEKML [IMPA1], the protein stability index came out at 3.832 ± 0.018 under setting [1] and 3.96 ± 0.49 under setting [2].

Turning to LEVEREAEKKREAKQRAKEAQERE [LRRC59], the protein stability index reads like this: under setting [1], 5.45 ± 0.42; under setting [2], 5.63 ± 0.19. The corresponding values for DQWTPIAAMLRGQSDVGVAVFENK [KLHL13] are 3.53 ± 0.2 and 3.42 ± 0.2. The corresponding values for GSSFSGRVFRVTFLMLAVSLTVPL [APMAP] are 3.06 ± 0.3 and 3.05 ± 0.35. As to SINAGSWMWLSCSSFFQQFFHCYC [CRY1], the protein stability index under setting [2] was determined as 3.4 ± 0.11.

KESESEAKVDGETASDSESRAESA [CDS2]: the protein stability index is, setting by setting: under setting [1], 5.6 ± 0.17; under setting [2], 5.34 ± 0.34. Consider QDEPRQGCQPEDRRRRIIINVGGI [KCNG1], for which the protein stability index came out at 3.92 ± 0.33 under setting [1] and 4.02 ± 0.2 under setting [2].
